{"source": "patent US9403884B2", "about": "“Peptides useful as cell-penetrating peptides” (Evonik Roehm GmbH, priority 2005, dated 2016)", "key": {"[1]": {"tested_on": "HeLa cells", "assay": "Cytotoxicity of hLF-peptide, cell viability by MTT test", "format": "cell-based, human", "conditions": "FIG. 6", "protocol": "However, for live cell microscopy of peptide uptake mostly rather short incubation times of less than one hour were employed. It was therefore also tested whether for longer incubation times and higher concentrations, the peptide affected cell viability. HeLa cells were incubated with the hLF-peptide at concentrations ranging from 1.25 μM to up to 160 μM for either 6 or 0.5 hours. Afterwards cell viability was determined using an MTT test. The result thereof are depicted in FIG. 6."}, "[2]": {"tested_on": "HeLa cells", "assay": "Cytotoxic effects observed during the uptake experiments (flow cytometry, live cell microscopy)", "format": "cell-based, human", "conditions": "concentration range of up to 40 μM, mostly incubation times of less than one hour"}}, "note": "fluorescein = fluorescein label (fluorescent marker on the peptide)"}
{"substance": "Fluo-KCFQWQRNMRKVRGPPVSCIKR-CONH2 (fluorescein-KCFQWQRNMRKVRGPPVSCIKR-NH2; cysteine pairing not given here; listed as Homo sapiens) [hLF-peptide]", "values": [{"measurement": "cell viability (MTT)", "setting": "[1]; after 6 hours, peptide concentrations higher than 5 μM", "value": "slightly reduced"}, {"measurement": "cell viability (MTT)", "setting": "[1]; concentrations higher than 40 μM (tested up to 160 μM)", "value": "all cells were killed"}, {"measurement": "cytotoxicity (MTT cell viability)", "setting": "[1]; incubated 30 minutes, concentrations up to 40 μM", "value": "no cytotoxicity was observed"}, {"measurement": "cytotoxic effects in the uptake experiments", "setting": "[2]", "value": "no cytotoxic effects could be observed"}]}
